Results from PMC11189300.

B1: Mis12 complex full length: MIS12, PMF1, NSL1, DSN1 mutant PMF1:R195E; PMF1:V198L; DSN1:L290F [human] / KNL1 residues 2,026–2,342 [human] (parent)
chain 1: SAQNEREKLQIKIDEMDKILKKIDNCLTEMETETKNLEDEEKNNPVEEWDSEMRAAEKELEQLKTEEEELQRNLLELEVQKEQTLAQIDFMQKQRNRTEELLDQLSLSEWDVVEWSDDQAVFTFVYDTIQLTITFEESVVGFPFLDKRYRKIVDVNFQSLLDEDQAPPSSLLVHKLIFQYVEEKESWKKTCTTQHQLPKMLEEFSLVVHHCRLLGEEIEYLKRWGPNYNLMNIDINNNELRLLFSSSAAFAKFEITLFLSAYYPSVPLPSTIQNHVGNTSQDDIATILSKVPLENNYLKNVVKQIYQDLFQDCHFYH
chain 2: MSVDPMTYEAQFFGFTPQTCMLRIYIAFQDYLFEVMQAVEQVILKKLDGIPDCDISPVQIRKCTEKFLCFMKGHFDNLFSKMEQLFLQLILRIPSNILLPEDKCKETPYSEEDFQHLQKEIEQLQEKYKTELCTKQALLAELEEQKIVQAKLKQTLTFFDELHNVGRDHGTSDFRESLVSLVQNSRKLQNIRDNVEKESKRLKIS
chain 3: MAEASSANLGSGCEEKRHEGSSSESVPPGTTISRVKLLDTMVDTFLQKLVAAGSYQRFTDCYKCFYQLQPAMTQQIYDKFIAQLQTSIREEISDIKEEGNLEAVLNALDKIVEEGKVRKEPAWRPSGIPEKDLHSVMAPYFLQQRDTLRRHVQKQEAENQQLADAVLAGRRQVEELQLQVQAQQQAWQALHREQRELVAVLREPE
chain 4: MAGSPELVVLDPPWDKELAAGTESQALVSATPREDFRVRCTSKRAVTEMLQLCGRFVQKLGDALPEEIREPALRDAQWTFESAVQENISINGQAWQEASDNCFMDSDIKVLEDQFDEIIVDIATKRKQYPRKILECVIKTIKAKQEILKQYHPVVHPLDLKYDPDPAPHMENLKCRGETVAKEISEAMKSLPALIEQGEGFSQVLRMQPVIHLQRIHQEVFSSCHRKPDAKPENFITQIETTPTETASRKTSDMVLKRKQTKDCPQRKWYPLRPKKINLDT
chain 5: MTSVTRSEIIDEKGPVMSKTHDHQLESSLSPVEVFAKTSASLEMNQGVSEERIHLGSSPKKGGNCDLSHQERLQSKSLHLSPQEQSASYQDRRQSWRRASMKETNRRKSLHPIHQGITELSRSISVDLAESKRLGCLLLSSFQFSIQKLEPFLRDTKGFSLESFRAKASSLSEELKHFADGLETDGTLQKCFEDSNGKASDFSLEASVAEMKEYITKFSLERQTWDQLLLHYQQEAKEILSRGSTEAKITEVKVEPMTYLGSSQNEVLNTKPDYQKILQNQSKVFDCMELVMDELQGSVKQLQAFMDESTQCFQKVSVQLGKRSMQQLDPSPARKLLKLQLQNPPAIHGSGSGSCQ

Variants of: B1
Assay: ITC
Settings: with KNL1 residues 2,026–2,342 [human]; syringe KNL1^WT; cell Mis12C^M2

screen value | Variant
-14.3 | chain 3 MAEASSANLGSGCEEKRHEGSSSESVPPGTTISRVKLLDTMVDTFLQKLVAAGSYQRFTDCYKCFYQLQPAMTQQIYDKFIAQLQTSIREEISDIKEEGNLEAVLNALDKIVEEGKVRKEPAWRPSGIPEKDLHSVMAPYFLQQRDTLRRHVQKQEAENQQLADAVLAGRRQVEELQLQVQAQQQAWQALHREQEELLAVLREPE chain 5 MTSVTRSEIIDEKGPVMSKTHDHQLESSLSPVEVFAKTSASLEMNQGVSEERIHLGSSPKKGGNCDLSHQERLQSKSLHLSPQEQSASYQDRRQSWRRASMKETNRRKSLHPIHQGITELSRSISVDLAESKRLGCLLLSSFQFSIQKLEPFLRDTKGFSLESFRAKASSLSEELKHFADGLETDGTLQKCFEDSNGKASDFSLEASVAEMKEYITKFSLERQTWDQLLLHYQQEAKEILSRGSTEAKITEVKVEPMTYLGSSQNEVLNTKPDYQKILQNQSKVFDCMEFVMDELQGSVKQLQAFMDESTQCFQKVSVQLGKRSMQQLDPSPARKLLKLQLQNPPAIHGSGSGSCQ [chain 3 R195E V198L, chain 5 L290F]

Same assay, conditions: with KNL1 residues 2,026–2,342 [human]; syringe KNL1^WT; cell Mis12C^M2; parent: -12

dG | Variant
-10.4 | chain 3 MAEASSANLGSGCEEKRHEGSSSESVPPGTTISRVKLLDTMVDTFLQKLVAAGSYQRFTDCYKCFYQLQPAMTQQIYDKFIAQLQTSIREEISDIKEEGNLEAVLNALDKIVEEGKVRKEPAWRPSGIPEKDLHSVMAPYFLQQRDTLRRHVQKQEAENQQLADAVLAGRRQVEELQLQVQAQQQAWQALHREQEELLAVLREPE chain 5 MTSVTRSEIIDEKGPVMSKTHDHQLESSLSPVEVFAKTSASLEMNQGVSEERIHLGSSPKKGGNCDLSHQERLQSKSLHLSPQEQSASYQDRRQSWRRASMKETNRRKSLHPIHQGITELSRSISVDLAESKRLGCLLLSSFQFSIQKLEPFLRDTKGFSLESFRAKASSLSEELKHFADGLETDGTLQKCFEDSNGKASDFSLEASVAEMKEYITKFSLERQTWDQLLLHYQQEAKEILSRGSTEAKITEVKVEPMTYLGSSQNEVLNTKPDYQKILQNQSKVFDCMEFVMDELQGSVKQLQAFMDESTQCFQKVSVQLGKRSMQQLDPSPARKLLKLQLQNPPAIHGSGSGSCQ [chain 3 R195E V198L, chain 5 L290F]

Same assay, conditions: with KNL1 residues 2,026–2,342 [human]; syringe KNL1^WT; cell Mis12C^M1

screen value | Variant
5.83 | chain 3 MAEASSANLGSGCEEKRHEGSSSESVPPGTTISRVKLLDTMVDTFLQKLVAAGSYQRFTDCYKCFYQLQPAMTQQIYDKFIAQLQTSIREEISDIKEEGNLEAVLNALDKIVEEGKVRKEPAWRPSGIPEKDLHSVMAPYFLQQRDTLRRHVQKQEAENQQLADAVLAGRRQVEELQLQVQAQQQAWQALHREQAELLAVLREPE chain 5 MTSVTRSEIIDEKGPVMSKTHDHQLESSLSPVEVFAKTSASLEMNQGVSEERIHLGSSPKKGGNCDLSHQERLQSKSLHLSPQEQSASYQDRRQSWRRASMKETNRRKSLHPIHQGITELSRSISVDLAESKRLGCLLLSSFQFSIQKLEPFLRDTKGFSLESFRAKASSLSEELKHFADGLETDGTLQKCFEDSNGKASDFSLEASVAEMKEYITKFSLERQTWDQLLLHYQQEAKEILSRGSTEAKITEVKVEPMTYLGSSQNEVLNTKPDYQKILQNQSKVFDCMEFVMDELQGSVKQLQAFMDESTQCFQKVSVQLGKRSMQQLDPSPARKLLKLQLQNPPAIHGSGSGSCQ [chain 3 R195A V198L, chain 5 L290F]

Same assay, conditions: with Mis12 complex (Mis12C), syringe KNL1^M1, cell Mis12C^WT

screen value | Variant
1.2 | chain 1 SAQNEREKLQIKIDEMDKILKKIDNCLTEMETETKNLEDEEKNNPVEEWDSEMRAAEKELEQLKTEEEELQRNLLELEVQKEQTLAQIDFMQKQRNRTEELLDQLSLSEWDVVEWSDDQAVFTFVYDTIQLTITFEESVVGFPFLDKRYRKIVDVNFQSLLDEDQAPPSSLLVHKLIFQYVEEKESWKKTCTTQHQLPKMLEEFSLVVHHCRLLGEEIEYLKRWGPNYNLANIDINNNELRLLFSSWAAAAAFEITLFLSAYYPSVPLPSTIQNHVGNTSQDDIATILSKVPLENNYLKNVVKQIYQDLFQDCHFYH [chain 1 M231A S247W F250A K252A]

Same assay, conditions: with Mis12 complex (Mis12C), syringe KNL1^M1, cell Mis12C^WT, parent: -12

dG | Variant
-9.35 | chain 1 SAQNEREKLQIKIDEMDKILKKIDNCLTEMETETKNLEDEEKNNPVEEWDSEMRAAEKELEQLKTEEEELQRNLLELEVQKEQTLAQIDFMQKQRNRTEELLDQLSLSEWDVVEWSDDQAVFTFVYDTIQLTITFEESVVGFPFLDKRYRKIVDVNFQSLLDEDQAPPSSLLVHKLIFQYVEEKESWKKTCTTQHQLPKMLEEFSLVVHHCRLLGEEIEYLKRWGPNYNLANIDINNNELRLLFSSWAAAAAFEITLFLSAYYPSVPLPSTIQNHVGNTSQDDIATILSKVPLENNYLKNVVKQIYQDLFQDCHFYH [chain 1 M231A S247W F250A K252A]

Same assay, conditions: with Mis12 complex (Mis12C), syringe KNL1^M2, cell Mis12C^WT

screen value | Variant
-16.1 | chain 1 SAQNEREKLQIKIDEMDKILKKIDNCLTEMETETKNLEDEEKNNPVEEWDSEMRAAEKELEQLKTEEEELQRNLLELEVQKEQTLAQIDFMQKQRNRTEELLDQLSLSEWDVVEWSDDQAVFTFVYDTIQLTITFEESVVGFPFLDKRYRKIVDVNFQSLLDEDQAPPSSLLVHKLIFQYVEEKESWKKTCTTQHQLPKMLEEFSLVVHHCRLLGEEIEYLKRWGPNYNLANIDINNNELRLLFSSWAAAAEFEITLFLSAYYPSVPLPSTIQNHVGNTSQDDIATILSKVPLENNYLKNVVKQIYQDLFQDCHFYH [chain 1 M231A S247W F250A K252E]

Same assay, conditions: with Mis12 complex (Mis12C), syringe KNL1^M2, cell Mis12C^WT, parent: -12

dG | Variant
-9.5 | chain 1 SAQNEREKLQIKIDEMDKILKKIDNCLTEMETETKNLEDEEKNNPVEEWDSEMRAAEKELEQLKTEEEELQRNLLELEVQKEQTLAQIDFMQKQRNRTEELLDQLSLSEWDVVEWSDDQAVFTFVYDTIQLTITFEESVVGFPFLDKRYRKIVDVNFQSLLDEDQAPPSSLLVHKLIFQYVEEKESWKKTCTTQHQLPKMLEEFSLVVHHCRLLGEEIEYLKRWGPNYNLANIDINNNELRLLFSSWAAAAEFEITLFLSAYYPSVPLPSTIQNHVGNTSQDDIATILSKVPLENNYLKNVVKQIYQDLFQDCHFYH [chain 1 M231A S247W F250A K252E]
